PMC8154272, “Discovery of a New, Recurrent Enzyme in Bacterial Phosphonate Degradation: (R)-1-Hydroxy-2-aminoethylphosphonate Ammonia-lyase” (Biochemistry, 2021)

Tests used:
[1] = tested on: NC[C@H](O)P(=O)(O)O; test: purified protein; settings: TEA-HCl pH 8.0, 25 °C, 5 mM MgCl2, 5 μM PLP, 0.07% BSA, 1,2-elimination
[2] = target: PhnX (Vibrio splendidus, UniProt A0ABV4LR11); test: 1H NMR, disappearance of PAA; format: biochemical; settings: PAA generated in situ by PhnW or PbfA; 50 mM potassium phosphate pH 8.0, 100 mM KCl, 5 mM MgCl2, 25 °C

## PbfA (Vibrio splendidus 12B01)
[1]
  Km: 430 ± 60 µM
  kcat: 5.3 ± 0.3 s^–1

## O=CCP(=O)(O)O [PAA]
[2]
  1H NMR, disappearance of PAA: Addition of PhnX (blue) led to disappearance of PAA
